Reference: patent US20180362652A1 (Biogen, published 2018)

Legend:
[1] = biological target: T1, human BDCA2 (full-length, cell surface) (human, UniProt Q8WTT0 1-213); test: cell-based or functional assay
T1 sequence: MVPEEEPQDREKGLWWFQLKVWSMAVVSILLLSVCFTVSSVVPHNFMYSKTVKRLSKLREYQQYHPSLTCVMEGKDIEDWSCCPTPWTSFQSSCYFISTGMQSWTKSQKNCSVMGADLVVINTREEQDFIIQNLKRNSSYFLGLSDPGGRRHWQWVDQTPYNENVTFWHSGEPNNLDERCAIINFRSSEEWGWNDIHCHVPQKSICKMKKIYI

[2] = biological target: T2, cynomolgus monkey BDCA2 (full-length, cell surface, E73 SNP form) (cynomolgus monkey, UniProt Q8WTT0 1-213 (human entry)); test: flow cytometry, whole blood pDCs of cynomolgus monkey donor 2, anti-human IgG PE secondary
T2 construct: also called cyno BDCA2; surface cynomolgus monkey BDCA2
T2 chain: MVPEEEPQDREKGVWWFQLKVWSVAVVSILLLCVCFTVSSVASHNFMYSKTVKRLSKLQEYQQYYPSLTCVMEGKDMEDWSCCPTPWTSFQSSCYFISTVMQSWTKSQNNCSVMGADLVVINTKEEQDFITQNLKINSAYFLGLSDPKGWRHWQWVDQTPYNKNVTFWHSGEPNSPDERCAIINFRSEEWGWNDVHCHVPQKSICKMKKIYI
Procedure: (§1) The MFI of PE was calculated in FlowJo software, and the percent of maximal binding, using the 40 μg/mL point as 100%, was computed. Each line represents one individual cynomolgus monkey, for a total of twelve cynomolgus monkeys, and graphed using GraphPad Prism software (four-parameter nonlinear regression curve fit of log-transformed data). Staining was repeated once a week for three weeks total.
(§2) The maximal values were taken from the values at the plateau in each assay (FIGS. 24 and 25).
(§3) MFI of PE was calculated with FlowJo software, and EC50 curves were generated in GraphPad Prism software.

[3] = biological target: T2, cynomolgus monkey BDCA2 (full-length, …); test: flow cytometry, whole blood pDCs of cynomolgus monkey donor 8, anti-human IgG PE secondary
Procedure: as §1, §2, §3

[4] = biological target: T2, cynomolgus monkey BDCA2 (full-length, …); test: flow cytometry, whole blood pDCs of cynomolgus monkey donor 1, anti-human IgG PE secondary
Procedure: as §1, §2, §3

[5] = biological target: T2, cynomolgus monkey BDCA2 (full-length, …); test: indirect method: flow cytometry of pDCs in cynomolgus whole blood, unlabelled BIIB059 titrated, free BDCA2 detected with the competitor BIIB059-A647 at 10 ug/mL [panel Cynomolgus monkey 8]
Procedure: (§4) The MFI of PE (open symbols, graphed on the left y-axis) or A647 (closed symbols, graphed on the right y-axis) was calculated in FlowJo software, and graphed using GraphPad Prism software (four-parameter nonlinear regression curve fit of log-transformed data).

[6] = biological target: T3, rat Clec4b2 (full-length, cell surface) (rat); test: dilution titration direct FACS on transiently transfected 293E cells
T3 construct: 293E cells co-transfected with rat FcεRIγ; Genbank NM_001005896; also called surface rat Clec4b2; closest rat homolog of human BDCA2
T3 chain: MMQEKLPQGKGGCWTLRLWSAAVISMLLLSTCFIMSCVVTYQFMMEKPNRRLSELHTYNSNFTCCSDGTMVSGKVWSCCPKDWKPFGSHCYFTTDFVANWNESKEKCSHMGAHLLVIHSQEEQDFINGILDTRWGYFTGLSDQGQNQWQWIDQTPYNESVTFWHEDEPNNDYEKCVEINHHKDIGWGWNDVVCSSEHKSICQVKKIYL

[7] = biological target: the molecule itself; test: AlphaScreen self-association assay: glutathione donor and acceptor beads carrying human FcRIIa (CD32a) GST; a signal needs antibody on both beads to associate with itself
Procedure: The AlphaScreen assay is a homogeneous proximity assay utilizing glutathione donor and acceptor beads (Perkin Elmer) to bind human FcRIIa (CD32a) GST. Various concentrations of the antibodies to be tested were added in this mixture. […] The level of emission detected by the Envision (Perkin Elmer) instrument is proportional to the degree of self-association.

[8] = biological target: T2, cynomolgus monkey BDCA2 (full-length, …); test: indirect method: flow cytometry of pDCs in cynomolgus whole blood, unlabelled BIIB059 titrated, free BDCA2 detected with the competitor BIIB059-A647 at 10 ug/mL [panel Cynomolgus monkey 1]
Procedure: as §4, §2

[9] = biological target: T2, cynomolgus monkey BDCA2 (full-length, …); test: flow cytometry, whole blood pDCs of cynomolgus monkey donor 11, anti-human IgG PE secondary
Procedure: as §2, §3

EC50 of BIIB059-mediated BDCA2 internalization (whole blood, 10 donors) [1]: 0.02 µg/mL
IC50 for inhibition of TLR9-induced IFNα production by PBMC [1]: 0.001 µg/mL
IC50 for inhibition of TLR9-induced IFNα production by PBMC from healthy donors [1]: 0.04 µg/mL
IC50 for inhibition of immune complex-induced IFNα by pDCs [1]: 0.04 µg/mL
IC50 of BIIB059 mediated inhibition of TLR9 induced IFNα (whole blood, 10 donors) [1]: 0.07 µg/mL
EC50 [2]: 1 µg/mL
EC50 [3]: 1.2 µg/mL
EC50 [4]: 0.81 µg/mL
IC50 (read off the curve) [5]: ~2 µg/mL
binding result [6]: no binding
IC50 (read off the curve) [8]: ~1 µg/mL
EC50 [9]: 1.4 µg/mL
B1: BIIB059 (antibody, human IgG1, kappa)
heavy: not shown
light: DIQLTQSPSSLSASVGDRVTITCKASQSVDYDGDSYMNWYQQKPGKAPKLLIYAASTLESGVPSRFSGSGSGTDFTLTISSLQPEDFATYYCQQANEDPRTFGQGTKVEIKRTVAAPSVFIFPPSDEQLKSGTASVVCLLNNFYPREAKVQWKVDNALQSGNSQESVTEQDSKDSTYSLSSTLTLSKADYEKHKVYACEVTHQGLSSPVTKSFNRGEC
notes: Humanized IgG1 kappa, mature chains; in some assays labelled with Alexa647; also called hu24F4 H4/L1 C95A; H4-L1-C95A (YL751/YL746)
binding result [7]: no binding (tested: 250 µg/ml)
